In article doi:10.1101/755504 (bioRxiv, 2019):

Molecular target: T1, His-D6PK (Arabidopsis thaliana, UniProt Q9FG74 1-498)
T1 sequence (looked up): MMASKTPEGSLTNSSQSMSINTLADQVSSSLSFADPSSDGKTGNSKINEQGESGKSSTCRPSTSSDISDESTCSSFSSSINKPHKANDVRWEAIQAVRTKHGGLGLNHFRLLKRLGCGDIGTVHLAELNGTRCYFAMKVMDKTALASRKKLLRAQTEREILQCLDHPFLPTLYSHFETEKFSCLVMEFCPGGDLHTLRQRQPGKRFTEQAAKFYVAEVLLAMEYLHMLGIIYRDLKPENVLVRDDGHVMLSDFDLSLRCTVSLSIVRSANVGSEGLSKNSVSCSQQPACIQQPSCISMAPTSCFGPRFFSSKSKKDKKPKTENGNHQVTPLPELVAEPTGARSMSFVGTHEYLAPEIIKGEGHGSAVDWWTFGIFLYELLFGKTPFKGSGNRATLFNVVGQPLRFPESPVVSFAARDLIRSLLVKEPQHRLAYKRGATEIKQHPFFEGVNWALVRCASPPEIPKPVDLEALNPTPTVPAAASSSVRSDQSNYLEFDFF
Test: pull-down

B1: GST-PDK1.1 (enzyme, Arabidopsis thaliana, UniProt Q9XF67 1-491, looked up)
chain: MLAMEKEFDSKLVLQGNSSNGANVSRSKSFSFKAPQENFTSHDFEFGKIYGVGSYSKVVRAKKKETGTVYALKIMDKKFITKENKTAYVKLERIVLDQLEHPGIIKLYFTFQDTSSLYMALESCEGGELFDQITRKGRLSEDEARFYTAEVVDALEYIHSMGLIHRDIKPENLLLTSDGHIKIADFGSVKPMQDSQITVLPNAASDDKACTFVGTAAYVPPEVLNSSPATFGNDLWALGCTLYQMLSGTSPFKDASEWLIFQRIIARDIKFPNHFSEAARDLIDRLLDTEPSRRPGAGSEGYVALKRHPFFNGVDWKNLRSQTPPKLAPDPASQTASPERDDTHGSPWNLTHIGDSLATQNEGHSAPPTSSESSGSITRLASIDSFDSRWQQFLEPGESVLMISAVKKLQKITSKKVQLILTNKPKLIYVDPSKLVVKGNIIWSDNSNDLNVVVTSPSHFKICTPKKVLSFEDAKQRASVWKKAIETLQNR
binding result: binds
